Measurements as given in the nanobody polyreactivity screen of Harvey et al. (2022).

experiment: yeast display, Sf9 membrane polyspecificity reagent, FACS + sequencing; frameworks hold sequencing errors
In short: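 A synthetic nanobody library was expressed on Saccharomyces cerevisiae BJ5465 by galactose induction for 36–48 hours. The library was stained for 1 hour at 4 °C with 10% biotinylated, detergent-solubilized Sf9 membrane reagent and enriched with streptavidin microbeads before FACS. Low and high (top ~1%) gates were set on anti-HA fluorescence for expression and streptavidin fluorescence for reagent binding, and each polyreactivity label reflects the gate of origin.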

| Sequence | polyreactivity (PSR sort gate) |
| --- | --- |
| QVQLVESGGGLVQAGGSLRLTCADSGFIFYRYAMVWYRQAPGKERELVAAISTRGGSTFYADSVKGRFTISRDNAKNTVYLQMNSLKPEDTAVYYCATGPLRAYDYWGQGTQVTVSS | high polyreactivity |
| QVQLVESGGGLVQAGGSLRLSCAASGFIFWPYAMGWYRQAPGKERELVAAITRSGGSTYYADSVKGRFTISRDNAKNTVYLQMNSLKPEDTAVYYCAARKRGTFTYDYWGQGTQVTVSS | high polyreactivity |
| QVQLVESAGGLVQAGGSLRLSCAASGFTFIGYVMGWYRQAPGKERELVAAITSGGDTNYADSVKGRFTISRDNAKNTVYLQMNSLKPEDTAVYYCNKGAYWVEYAYIEGELDYWGQGTQVTVSS | low polyreactivity |
| QVQLVESGGGLVQAGGSLRLSCAASGSIFSTNAMGCYIQAPGKERELVAVITGIGGITYYADSVKGRFTISRDNAKNTVYVQMNSLKPEDTAVYYCAADPISEFYWGVKDRYDYWGQGTQVTVST | low polyreactivity |
| QVQLVESGGGLVQAGGSLRLSCPASGSTLVYNDMGWYRQAPGKEREFVAAIRSNDGSTYYADSVKGRFTISRDNAKNTVYLQMNSLKPEDTAVYYCNKDVWDGYDWPEFDYWGQGTQVTVSS | low polyreactivity |
| QVQLVESGGGLVQAGGSLRLSCAASGLTFYPYTMGWYRQAPGKERELVAAISSGGSTYYADSVKGRFTISRDNAKNTVYLQMNSLKPEDTAVYYCAARYPYFSYGYWGQGTQVTVSS | high polyreactivity |
| QVQLGESGGGLVQAGGSLRLSCAASGIIFLGYAMGSYRQAPGKERELVAAFYSGVRTYYADSVKGRFTISRDNAKNTVYLQMNSLKPEDTAVYYCNATWTPYSSKQYYYWGLGTQVTVSS | low polyreactivity |
| QVQLVESGGGLVQAGGSLRLSCDASGSTFYRNVIGWYRQAPGKERELVAAISSGGSTYYADSVKGRFTISRDNAKNTVYFQMNSLKPEDTAVYYCAARKRYSYDYWGQGTQVTVSS | low polyreactivity |
| HVQLVESGGGLVQAGGSLRLSCAASGFMFSGYAMGWYRQAPGKVRELVAAITWSGSNTFYADSVKGRFTISRDNAKNTVYLQRNSLKPEDTAVYYCNAVSKYKRSDYYYWGQGTQVTVSS | high polyreactivity |
| QVQLVESGGGLVQAGGSLRLSCAASGRTFLPNAMGWYRQAPGKDRELVAVITSGGSTNYADSVKGRFTISRDNAKNTVYLQMNSLKPEDTAVYYCAARRWSSSQGHWGKSAGYGYWGQGTQVTVSS | low polyreactivity |
| QVQLVESGGGLVQAGGSLRLSCAASDLQILCYGWYRQPPGKERELFASITRGDGSTYYADSVKGRFTISRDNAKNTVFIQMNSLKPEDTAVYYCADYNDWRDELYDYWGQGTQVTVSS | low polyreactivity |
| QVQLVESGGGLVQAGGSLRLSCAASGFIFSNNAMGWYRQAPGKERELVASISSSSRTYYADSVKGRFTISRDNAKNTVYLQMNSLKPEDTAVYYCAAVFRWWGTRVDYWGQGTQVTVSS | high polyreactivity |
| QVQLVESGGGLVQAGGSLSLSCAASGSIFVIYTMGWYRPAPGKERELVAGITWSTGNTYYADSVKGRFTISRDNAKNTFYLQMNSLKPEDTAVYSCAARTTSRWRSGAYYYWGQGTQVTVSS | high polyreactivity |
| QVQLVDSGGGLVQAGGSLRLSCAASGSTFLAYAMGSSRQAPGKQTELVAAITWNSCSSTFYADSVKGRFTISRDNAKNSVYLQMNSLKPEDTAVYYCNADVPSPAYYGDGTPYREDNYWGQGTQVTVSS | low polyreactivity |
| QVQLVESGGGLVQAGGSLRLSCAASGRTLSLYAMGWYRQAPGKERELVATISKSGGSTDYADSVKGRFTISRDNAKNTVYLQMNSLKPEDTAVYYCAADANSWFTSYQVYGSEFDYWGQGTQVTVSS | low polyreactivity |
| QVQLVESGGGLVQAGGSLRLSCAASGGTFPGYTMGWNRQAPGKERELVAAISGSGVSTYYADSVKGRFTISRDNAKNTVYLQMNSLKPEDTAVYYCARTYRSYSRYPFVRFDYWGQGTQVTVSS | high polyreactivity |
| QVQLVESGGGLVQAGGSLRLSCAASGRTFFKYVKGWYRQAPGKERELVAAISSGGSTNYADSVKGRFTISRDNAKNTVYLQMNSVKPEDTAVYSCAASRYRGYYYWGQGTQVTVSS | high polyreactivity |
| QVQLVESGGGLVQAGGSLRLSCASSGIIFYPNAMGWYRQAPAKERELVAAITSDGSTYYADSVKGRFTISRDNAMNTVYLQMNRLKPEDTAVYYCAAWEDYGYDYWGQGTQVTVSS | low polyreactivity |
| QVQLVESGGGLVQAGGSLRLSCAASGSTFVGYAMRGYRQAPGKERELVADIDSIGGSTYYADSVKGRFTISRDNAKNTVYLQMNSLKPEDTAVYYCAARRFDTALVLYDYWGQGTQVTVSS | low polyreactivity |
| QVQLVESGGGLVQAGGSLRLSCAASGFIFYSYPMGWYRKAPGKERALVAAITEDGDSTYYADSVKGRFTISRDNAKNTVYLQMNSLKPVDTAVYYCNTDLTFNGTSGDYDYWGQGTQVTVSS | low polyreactivity |
| QVQLVESGGGIVQAGGSLRLRCAASGSTFNKYAMGWYRQAPGKERELVAAISGGGRTNYADSVKGRFTISRDNAKNTVYLQMNSLKPEDTAVYSCARPSPHKGYDYWGQGTQVTVSS | high polyreactivity |
| QVQLVESGGGLVQAGGSLRLSCAASGSIFADYTMGWYRQAPGKEREVVAAITSGGSTYYADSVKGRFTISRDNAKNTVYLQMNSLKPEDTAVYYCAAYYGGRGYWGQGTQVTVSS | low polyreactivity |

| Sequence | polyreactivity (PSR sort gate) |
| --- | --- |
| QVQLVESGGGLVQAGGSLRLSCDASGSTIKYYAMGWYRQAPGTEMELVARITSDCGSTFYADSVKGRFTISRDNAKNTVYLLMNRLKPEDTAVYYCNTDYAFRHCWFYPMDYWGQGTQVTVSS | high polyreactivity |
| QVQLVESGGGLDQAGGSLRLSCAASGFTFAYNARGRYRQAPGKERELVAAITTRGGGTYYADSVKGRFTISRDNAKYTVYLQMNSLKPEDTAVYYCAAKKSRYPYNYWGQGTQVTVSS | high polyreactivity |
| QVQLVESGGGLVQAGGSLRLSCAASGTTLVIYAMGWYRQAPGKERELVAAINFSDGSTSYADSVKGRFTKSRDNAKNTVYLQMISLKPEDTAVYYWGQGTQVTVSS | low polyreactivity |
| QVQLVESGGGLVQAGGSLRLSCAASGRTLGVYAMGWYRQAPGKERELVATITSGDGTNYADSVKGRFTISRDNAKNTVYLQMNSLKPVDTAVYYCNAEAKSQWFVYPYWYWPLYDYWGPGTQVTVSS | low polyreactivity |
| QVQLVESGGGLVQAGGSLRLSCAASGSIFVYYAMGWYRQAPGKERELGAAISSTGGRTYYADSVKGRFTISRDNAKNTVYLQMNSLKPEDTAVYYCAKTPTVVEFDYWGQGTQVTVAS | low polyreactivity |
| QVQLVESGGGLVQAGGSLRLSSAASGRIFKGNAMGWYRQAPGKERELVAAISKRGGSTHYADSVKGRFTISRDNSKNTVYLQMNSLKPEDTAVYYCATDSYYVGAVHYYYWGQGTQVTVSS | high polyreactivity |
| QVQLVDSGVGLVQAGGSLRLSCAASGNTFSSYTMGWYIQAPGKERELVAGISRTGTSTYYADSVKGRFTISRDNAKNSVYLQMNSLKPEDTAVYYCAARTGWWYYWGQGTQVSVSS | high polyreactivity |
| QVQIVESGGGLVQAGGSLRLCCAASGRTFYGSKMGWYRQAPGKESELVAAISRNGASTFYADSVKRRFTISRDNAKKSVYLQINILKPEYTGVYYFNARSWRHTDTSFEYWGQGTQVTVSS | high polyreactivity |
| QVQLVESGGGLVQAGGSLRLSCAASGRTFGPYAMGWSRQAPGKEREFVAAISYSGGSTYYADSVKGRFTISRDNAKNTVYFQITSLKPEDTAVYYCAVDIDSNSGTRDYWGQGTQVTVSS | low polyreactivity |
| QVQLVESGGGLVQAGGSLRLSSAASGSIFSRYAMGWYRQAPGIERELVAAITWSGGSTYYADSVKGRFTISRDNAKNTVYLQMNSLKPEDTAVYYCAAFGYAPYNHRYDYWGQGTQVTVSS | low polyreactivity |
| QVQLVESGGGLVQAGGSLRLSCAASGRIFKLNDMGWYRQAPGKERELVAAITRGTGSTYADSVKGRFTISRDNAMNTVYLQMNSLKPEDTAVYDCATRYSYRRLSFPRPDEMEYWGQGTQVTVSS | low polyreactivity |
| QVQLVESGGGLVQAGGSLRLSCAASGRTFYVNALGWYRQAPGKERELVAGISFSDGSTYYADSVKGRFTISRDNAKNTVYLQMNSLKPEDTAVYYCATVGAFDIYYGYGYWGQGTQVTVSS | low polyreactivity |
| QVQLVESGGGLVQAGGSLRLSCAASGYTFSVNVMGWYRQAPGKERELVAAISGRGGRTYYADSVKGRFTISRDNAKNTVYLQMNSLKPEDTAVYYCAAVRGKPGRISYPYDYWGQGTQVTVSS | high polyreactivity |
| QVQLEESGGGLVQAGGSLRLSCAASGRIFRYYTMGGYRQAPGKERELVDAISGSGGSTYYADSVKGRFTISRDNAKNTVYLQMNSLKPEDTSVYYCAAAHRYWGQGTQVTVSS | high polyreactivity |
| QVQLVESGGGLVQAGGSLRLSCAASGSIFTYNVMGWYRHAPGKERELVAAIRTRGDRTYYADSVKGRFTISRDNAKNTVYLQMNSLKPDDTAVYYCAAAGSYYSHEYWGQGTQVTVSS | high polyreactivity |
| QVHLVESGGGLLQAGGSLRLSCAASGYTFVNYAMGWYREAPRKEMELVAAISYRGGSTSYADSVKGRFTISRDNAKNTVYLQMKSLKPEDSAVYYCAVVGQNWQSLRYDYWGQGTQVTVSS | high polyreactivity |
| QVQLVESGGGLVQAGGSLRLSSASSGRTLVPYAMGWYRQAPGKERELVAAISSGGYTNYADSVKGRFTISRDNAKNTVYLQMNSLKPEDTAVYYCAADYPVRSYDYWGQGTQVTVSS | low polyreactivity |
| QVQLVESGGGLDQAGGSLRLSCAASGSTFSIYTMGWYRQAPGKEREFVAAITYIGGRTYYADSVKGRFTISRDNAKNTVYLQMNSLKPEDTAVYYCAADWAYYVASYLYYTFDYWGQGTQVTVSS | low polyreactivity |
| QVQLVESGGGLVQAGGSLRLSCAASGRTSSINAMGWYRKAPGKERELVAVITGGGRTSYADSVKGRFTISRDNAKNTVYLQMNSLKPEDTAVYYCNATRSYYGYYYWGQGTQVTVSS | high polyreactivity |
| QVQLVESGGGLVQAGGSLRLSCAASGRTFALYALGRYRQAPGKERELVASISWRGGSTYYADSVKGRFTISRDNANNTVYVQMNRLKPEDTAVSYCAADTGSYGPLIYRLEYWGQGTQVNVSS | low polyreactivity |
| QVQLVESGGGLVQAGGSLRLSCAASGGTFGYNAMGWYRQAPWKERELVAAISSGGRTYYADSVKGRFTISRDNAKNTVYLQMNSLKPEDTAVYYCNARKGLYYGGRYDYWGQGTQVTVSS | high polyreactivity |
